Reference: US20240376185A1

What was measured:
horse IgG = assay: ELISA, coated antigen, E. coli supernatant (no SDA 0.255, 0.261)
horse IgG Fc fragment = assay: ELISA, coated antigen, E. coli supernatant
bovine IgG = assay: ELISA, coated antigen, E. coli supernatant
horse IgG Fab fragment = assay: ELISA, coated antigen, E. coli supernatant
dog IgG Fab fragment = assay: ELISA, coated antigen, E. coli supernatant
swine IgG = assay: ELISA, coated antigen, E. coli supernatant
human IgG = assay: ELISA, coated antigen, E. coli supernatant
guinea pig IgG = assay: ELISA, coated antigen, E. coli supernatant
dog IgG = assay: ELISA, coated antigen, E. coli supernatant
dog serum albumin (dog) = dog serum albumin (dog) (UniProt P49822); assay: ELISA, coated albumin, E. coli supernatant
[1] = target: human serum albumin (human) (UniProt P02768); assay: ELISA, coated albumin, E. coli supernatant
[2] = target: horse serum albumin (horse) (UniProt P35747); assay: ELISA, coated albumin, E. coli supernatant
horse serum albumin (horse), sequence (P35747 25-607): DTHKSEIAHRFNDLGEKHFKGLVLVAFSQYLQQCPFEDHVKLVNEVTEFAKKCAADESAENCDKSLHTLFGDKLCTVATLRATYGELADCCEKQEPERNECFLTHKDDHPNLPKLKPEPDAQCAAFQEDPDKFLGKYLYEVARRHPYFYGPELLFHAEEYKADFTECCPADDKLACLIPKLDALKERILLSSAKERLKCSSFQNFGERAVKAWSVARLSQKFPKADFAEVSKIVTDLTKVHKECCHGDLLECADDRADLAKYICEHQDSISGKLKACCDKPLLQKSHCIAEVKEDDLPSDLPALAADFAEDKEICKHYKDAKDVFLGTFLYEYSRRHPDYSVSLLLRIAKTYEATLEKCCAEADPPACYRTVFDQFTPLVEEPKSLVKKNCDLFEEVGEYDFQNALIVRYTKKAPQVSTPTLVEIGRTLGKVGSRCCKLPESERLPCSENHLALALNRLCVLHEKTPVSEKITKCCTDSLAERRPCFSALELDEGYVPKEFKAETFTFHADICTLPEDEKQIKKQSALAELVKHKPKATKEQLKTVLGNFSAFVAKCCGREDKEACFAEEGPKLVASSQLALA

dog serum albumin (dog), sequence (P49822 25-608): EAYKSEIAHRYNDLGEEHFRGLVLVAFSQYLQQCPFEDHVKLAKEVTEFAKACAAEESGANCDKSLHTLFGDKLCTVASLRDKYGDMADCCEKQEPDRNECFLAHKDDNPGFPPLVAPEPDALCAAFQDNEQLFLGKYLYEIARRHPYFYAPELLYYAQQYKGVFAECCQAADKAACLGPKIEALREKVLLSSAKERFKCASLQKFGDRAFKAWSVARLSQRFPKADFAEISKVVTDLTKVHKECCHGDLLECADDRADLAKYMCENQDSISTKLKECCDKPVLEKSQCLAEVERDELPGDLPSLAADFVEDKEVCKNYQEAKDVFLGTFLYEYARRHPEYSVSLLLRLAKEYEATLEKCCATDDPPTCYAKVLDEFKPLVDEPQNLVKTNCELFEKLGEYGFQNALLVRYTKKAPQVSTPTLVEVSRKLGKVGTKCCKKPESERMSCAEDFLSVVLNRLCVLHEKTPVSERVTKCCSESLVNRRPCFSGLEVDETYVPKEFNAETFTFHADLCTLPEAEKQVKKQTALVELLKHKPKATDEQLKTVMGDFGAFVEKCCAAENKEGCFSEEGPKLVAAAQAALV

B1: SVG23 (VHH, not shown: large carriers)
VHH: QVQLQESGGGLVQAGGSLRLSCAASGRAFGSYTMNWFRQAPGKERDFVAGIMSSGMNTWYADSVKGRFTISRDNAKNTVYLQMNSLKPEDTAVYYCASRPRSTMTSGRYLYDYWGQGTQVTVSS
How did the absorbance at 450 nm (horse IgG) turn out when B1 was run?
The absorbance at 450 nm was 0.26 A450.

And the absorbance at 450 nm (horse IgG Fc fragment)?
Its absorbance at 450 nm is 0.072 A450.

And the absorbance at 450 nm (bovine IgG)?
The absorbance at 450 nm was 0.062 A450.

And the absorbance at 450 nm (horse IgG Fab fragment)?
Its absorbance at 450 nm is 0.056 A450.

And the absorbance at 450 nm (dog IgG Fab fragment)?
Its absorbance at 450 nm is 0.061 A450.

What about the absorbance at 450 nm (swine IgG) of the same binder?
Its absorbance at 450 nm is 0.092 A450.

What about the absorbance at 450 nm (human IgG) of the same binder?
The absorbance at 450 nm was 0.073 A450.

What about the absorbance at 450 nm (guinea pig IgG) of the same binder?
The absorbance at 450 nm was 0.068 A450.

And the absorbance at 450 nm (dog IgG)?
Its absorbance at 450 nm is 1.74 A450.

B2: SVG07 (VHH, not shown: large carriers)
VHH: QVQLQESGPGLVKPSQTLSLTCTVSGGSITTTAYAWSWIRQPPGKGLEWMGAIRFDGTTDYSPSLKSRISISRDTSNNQFSLRMSSVTPEDTAVYYCARYGVVSDHGGLDYWGQGTQVTVSS
For B2, which absorbance at 450 nm (horse IgG) is on record?
The absorbance at 450 nm was 0.401 A450.

What about the absorbance at 450 nm (horse IgG Fc fragment) of the same binder?
Its absorbance at 450 nm is 0.099 A450.

What about the absorbance at 450 nm (bovine IgG) of the same binder?
The absorbance at 450 nm was 0.121 A450.

What about the absorbance at 450 nm (horse IgG Fab fragment) of the same binder?
The absorbance at 450 nm was 0.152 A450.

What about the absorbance at 450 nm (dog IgG Fab fragment) of the same binder?
The absorbance at 450 nm was 0.454 A450.

What about the absorbance at 450 nm (swine IgG) of the same binder?
The absorbance at 450 nm was 0.103 A450.

What about the absorbance at 450 nm (human IgG) of the same binder?
The absorbance at 450 nm was 0.17 A450.

And the absorbance at 450 nm (guinea pig IgG)?
Its absorbance at 450 nm is 0.249 A450.

And the absorbance at 450 nm (dog IgG)?
Its absorbance at 450 nm is 0.479 A450.

B3: SVA04 (VHH, not shown: large carriers)
VHH: QVQLQQSGGGLVQAGGSLRLACAASGRTLSSYVMGWFRQAPGKEREFVAAISWSGGSTYYADSVKGRFTISRDNAKNTVYLQMNSLKPEDTAVYYCAATLRGSNRYYSGRVYDYWGQGTQVTVSS
B3 was tested. Which absorbance at 450 nm (dog serum albumin (dog)) did it give?
Its absorbance at 450 nm is 1.53 A450.

B4: SVG18 (VHH, not shown: large carriers)
VHH: QVQLQQSGGGLVQPGGSLRLSCAASGFTFSSYAMSWVRQAPGKGLEWVSAINSGGDIISYADSVKGRFTISRDNAKNTLYLQMNSLKPEDTAVYYCAKSPIVRTYGGYDYWGQGTQVTVSS
How did the absorbance at 450 nm (horse IgG) turn out when B4 was run?
The absorbance at 450 nm was 0.478 A450.

What about the absorbance at 450 nm (horse IgG Fc fragment) of the same binder?
Its absorbance at 450 nm is 0.072 A450.

And the absorbance at 450 nm (bovine IgG)?
The absorbance at 450 nm was 0.124 A450.

And the absorbance at 450 nm (horse IgG Fab fragment)?
Its absorbance at 450 nm is 0.32 A450.

And the absorbance at 450 nm (dog IgG Fab fragment)?
The absorbance at 450 nm was 1.36 A450.

What about the absorbance at 450 nm (swine IgG) of the same binder?
The absorbance at 450 nm was 0.097 A450.

What about the absorbance at 450 nm (human IgG) of the same binder?
Its absorbance at 450 nm is 0.096 A450.

And the absorbance at 450 nm (guinea pig IgG)?
The absorbance at 450 nm was 0.174 A450.

What about the absorbance at 450 nm (dog IgG) of the same binder?
Its absorbance at 450 nm is 1 A450.

B5: SVG24 (VHH, not shown: large carriers)
VHH: QVQLQQSGGGLVQAGGSLRLSCAASGRTFSTYNIAWFRQAPGKEREFVTAITWGSGNTYYADSVKGRFTISRDNAKNTVFLQMNSLKPDDTAVYYCAARRSLGPTMAFAYEYWGQGTQVTVSS
B5 was tested. Which absorbance at 450 nm (horse IgG) did it give?
The absorbance at 450 nm was 0.765 A450.

What about the absorbance at 450 nm (horse IgG Fc fragment) of the same binder?
Its absorbance at 450 nm is 1.67 A450.

And the absorbance at 450 nm (bovine IgG)?
Its absorbance at 450 nm is 0.075 A450.

And the absorbance at 450 nm (horse IgG Fab fragment)?
Its absorbance at 450 nm is 0.06 A450.

And the absorbance at 450 nm (dog IgG Fab fragment)?
Its absorbance at 450 nm is 0.074 A450.

And the absorbance at 450 nm (swine IgG)?
Its absorbance at 450 nm is 0.341 A450.

What about the absorbance at 450 nm (human IgG) of the same binder?
The absorbance at 450 nm was 0.084 A450.

What about the absorbance at 450 nm (guinea pig IgG) of the same binder?
Its absorbance at 450 nm is 0.068 A450.

What about the absorbance at 450 nm (dog IgG) of the same binder?
Its absorbance at 450 nm is 1.74 A450.

B6: SVG13 (VHH)
VHH: QVQLQESGGGLVQPGGSLRLSCEASGFTFDDYGMSWVRQAPGKGLEWVSSLTPNGGSTYYADSVKGRFTISRDNAKNTLYLQMNSLKPEDTALYYCAKNSYYGAMDYWGKGTLVTVSS
B6 was tested. Which absorbance at 450 nm (horse IgG) did it give?
Its absorbance at 450 nm is 0.436 A450.

What about the absorbance at 450 nm (horse IgG Fc fragment) of the same binder?
Its absorbance at 450 nm is 0.097 A450.

What about the absorbance at 450 nm (bovine IgG) of the same binder?
Its absorbance at 450 nm is 0.272 A450.

What about the absorbance at 450 nm (horse IgG Fab fragment) of the same binder?
The absorbance at 450 nm was 0.222 A450.

And the absorbance at 450 nm (dog IgG Fab fragment)?
Its absorbance at 450 nm is 0.59 A450.

What about the absorbance at 450 nm (swine IgG) of the same binder?
The absorbance at 450 nm was 0.195 A450.

What about the absorbance at 450 nm (human IgG) of the same binder?
The absorbance at 450 nm was 0.524 A450.

And the absorbance at 450 nm (guinea pig IgG)?
The absorbance at 450 nm was 0.579 A450.

And the absorbance at 450 nm (dog IgG)?
The absorbance at 450 nm was 0.693 A450.

B7: SVA12 (VHH)
VHH: QVQLQESGGRLVQAEDSLRLSCAASGRTFVSYDMGWFRQAPGKEREFVAAINWRGYTTDYVDSVKGRFFISRDIAKSTVYLQMNNLKPEDTAVYYCAARQMSGSSRYSPPGRVGYDFWGQGTQVTVSS
B7 was tested. Which absorbance at 450 nm [1] did it give?
The absorbance at 450 nm was 0.057 A450.

What about the absorbance at 450 nm (dog serum albumin (dog)) of the same binder?
The absorbance at 450 nm was 1.77 A450.

And the absorbance at 450 nm [2]?
The absorbance at 450 nm was 2 A450.

B8: SVG03 (VHH, not shown: large carriers)
VHH: QVQLQESGGGLVQAGGSLRLSCAASGRTFSNYVMGWFRQAPGKEREFVSAISWNGVSTFYADSVKGRFTISRDNAKNTVYLQMNSLKPEDTAVYYCAADERFVVRYNYWGQGTQVTVSS
B8 was tested. Which absorbance at 450 nm (horse IgG) did it give?
Its absorbance at 450 nm is 1.1 A450.

And the absorbance at 450 nm (horse IgG Fc fragment)?
Its absorbance at 450 nm is 0.476 A450.

What about the absorbance at 450 nm (bovine IgG) of the same binder?
Its absorbance at 450 nm is 0.061 A450.

And the absorbance at 450 nm (horse IgG Fab fragment)?
The absorbance at 450 nm was 0.057 A450.

What about the absorbance at 450 nm (dog IgG Fab fragment) of the same binder?
Its absorbance at 450 nm is 0.054 A450.

What about the absorbance at 450 nm (swine IgG) of the same binder?
Its absorbance at 450 nm is 0.075 A450.

What about the absorbance at 450 nm (human IgG) of the same binder?
The absorbance at 450 nm was 0.076 A450.

And the absorbance at 450 nm (guinea pig IgG)?
Its absorbance at 450 nm is 0.063 A450.

What about the absorbance at 450 nm (dog IgG) of the same binder?
The absorbance at 450 nm was 0.07 A450.

B9: SVG06 (VHH)
VHH: QVQLQESGGALVQPGGSLRLSCAASGFPFSAYDMTWVRQAPGQGLEWVSTIHKSGGITTYADSVKGRFTISRDNAKNTLYLQMNNLESEDTAVYYCAKALRAHNSDYVGRNALGSWGEGTLVTVSS
What does the source list for B9?
absorbance at 450 nm (horse IgG): 0.325 A450; absorbance at 450 nm (horse IgG Fc fragment): 0.073 A450; absorbance at 450 nm (bovine IgG): 0.172 A450; absorbance at 450 nm (horse IgG Fab fragment): 0.089 A450; absorbance at 450 nm (dog IgG Fab fragment): 0.178 A450; absorbance at 450 nm (swine IgG): 0.131 A450; absorbance at 450 nm (human IgG): 0.365 A450; absorbance at 450 nm (guinea pig IgG): 0.204 A450; absorbance at 450 nm (dog IgG): 0.277 A450

B10: SVG19 (VHH, not shown: large carriers)
VHH: QVQLQQSGGGLVQPGGSLRLSCAASGFTFSSYAMSWVRQAPGKGLEWVSAINSGGGSTSYADSVKGRFTISRDNAKNTLYLQMNSLKPEDTAVYYCAKDFDPWGVGTGGYDYWGQGTQVTVSS
B10 was tested. Which absorbance at 450 nm (horse IgG) did it give?
The absorbance at 450 nm was 0.681 A450.

And the absorbance at 450 nm (horse IgG Fc fragment)?
The absorbance at 450 nm was 0.079 A450.

What about the absorbance at 450 nm (bovine IgG) of the same binder?
Its absorbance at 450 nm is 0.453 A450.

And the absorbance at 450 nm (horse IgG Fab fragment)?
The absorbance at 450 nm was 0.472 A450.

What about the absorbance at 450 nm (dog IgG Fab fragment) of the same binder?
Its absorbance at 450 nm is 1.22 A450.

What about the absorbance at 450 nm (swine IgG) of the same binder?
Its absorbance at 450 nm is 0.146 A450.

And the absorbance at 450 nm (human IgG)?
The absorbance at 450 nm was 0.309 A450.

What about the absorbance at 450 nm (guinea pig IgG) of the same binder?
The absorbance at 450 nm was 0.435 A450.

What about the absorbance at 450 nm (dog IgG) of the same binder?
Its absorbance at 450 nm is 1.02 A450.
